Legend:
[1] = molecular target: T1, MarA I16C/M47C I14C;M45C (Escherichia coli MG1655) (UniProt P0ACH5); test: EMSA; settings: EMSA: 20 mM Hepes pH 8, 100 mM MgCl2, 100 mM EDTA, 0.3 mg/mL BSA, +/- DTT, 0.8 uM MarA, DNA 15 nM (200 bp) or 200 nM (30 bp), 20 min 37 C, 8% native gel, SYBR …
T1 sequence: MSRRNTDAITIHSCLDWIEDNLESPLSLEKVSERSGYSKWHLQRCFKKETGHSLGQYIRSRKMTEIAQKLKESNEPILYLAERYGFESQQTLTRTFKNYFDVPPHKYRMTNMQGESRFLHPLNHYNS

[2] = molecular target: T2, MarA I13C/M47C I11C;M45C (Escherichia coli MG1655) (UniProt P0ACH5); test: EMSA; settings: EMSA: 20 mM Hepes pH 8, 100 mM MgCl2, 100 mM EDTA, 0.3 mg/mL BSA, +/- DTT, 0.8 uM MarA, DNA 15 nM (200 bp) or 200 nM (30 bp), 20 min 37 C, 8% native gel, SYBR …
T2 sequence: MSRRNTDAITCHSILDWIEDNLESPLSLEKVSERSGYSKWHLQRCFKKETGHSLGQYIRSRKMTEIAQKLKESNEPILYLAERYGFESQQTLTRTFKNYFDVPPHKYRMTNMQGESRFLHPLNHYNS

[3] = molecular target: T3, MarA WT (Escherichia coli MG1655) (UniProt P0ACH5); test: EMSA; settings: EMSA: 20 mM Hepes pH 8, 100 mM MgCl2, 100 mM EDTA, 0.3 mg/mL BSA, +/- DTT, 0.8 uM MarA, DNA 15 nM (200 bp) or 200 nM (30 bp), 20 min 37 C, 8% native gel, SYBR …
T3 sequence: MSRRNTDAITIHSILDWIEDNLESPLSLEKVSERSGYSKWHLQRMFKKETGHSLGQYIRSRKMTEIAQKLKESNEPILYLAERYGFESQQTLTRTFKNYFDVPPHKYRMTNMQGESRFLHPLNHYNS

[4] = molecular target: T4, MarA S62C/L121C S60C;L119C (Escherichia coli MG1655) (UniProt P0ACH5); test: EMSA; settings: EMSA: 20 mM Hepes pH 8, 100 mM MgCl2, 100 mM EDTA, 0.3 mg/mL BSA, +/- DTT, 0.8 uM MarA, DNA 15 nM (200 bp) or 200 nM (30 bp), 20 min 37 C, 8% native gel, SYBR …
T4 sequence: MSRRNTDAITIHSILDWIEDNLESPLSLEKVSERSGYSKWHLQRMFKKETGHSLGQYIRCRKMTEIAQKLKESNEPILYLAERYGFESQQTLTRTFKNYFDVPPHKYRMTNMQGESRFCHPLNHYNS

MarA I16C/M47C = molecular target: T5, MarA I16C/M47C (Escherichia coli MG1655, UniProt P0ACH5 1-127, I14C;M45C); test: EMSA; 0.5 or 1 mM DTT; EMSA: 20 mM Hepes pH 8, 100 mM MgCl2, 100 mM EDTA, 0.3 mg/mL BSA, +/- DTT, 0.8 uM MarA, DNA 15 nM (200 bp) or 200 nM (30 bp), 20 min 37 C, 8% native gel, SYBR green; settings: protein: recombinant; tags: N-terminal 6xHis (pET-15b); blunt
T5 sequence: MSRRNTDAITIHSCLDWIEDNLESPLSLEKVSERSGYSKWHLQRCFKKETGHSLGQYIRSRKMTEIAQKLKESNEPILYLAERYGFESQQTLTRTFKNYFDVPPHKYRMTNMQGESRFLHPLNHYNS

MarA WT = molecular target: T6, MarA WT (Escherichia coli MG1655, UniProt P0ACH5 1-127); test: EMSA; no DTT; EMSA: 20 mM Hepes pH 8, 100 mM MgCl2, 100 mM EDTA, 0.3 mg/mL BSA, +/- DTT, 0.8 uM MarA, DNA 15 nM (200 bp) or 200 nM (30 bp), 20 min 37 C, 8% native gel, SYBR green; settings: protein: recombinant; tags: N-terminal 6xHis (pET-15b); blunt
T6 sequence: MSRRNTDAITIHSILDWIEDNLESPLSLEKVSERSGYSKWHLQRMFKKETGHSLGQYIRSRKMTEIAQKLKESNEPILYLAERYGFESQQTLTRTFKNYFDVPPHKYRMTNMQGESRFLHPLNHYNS

MarA I13C/M47C = molecular target: T7, MarA I13C/M47C (Escherichia coli MG1655, UniProt P0ACH5 1-127, I11C;M45C); test: EMSA; no DTT (disulfide); EMSA: 20 mM Hepes pH 8, 100 mM MgCl2, 100 mM EDTA, 0.3 mg/mL BSA, +/- DTT, 0.8 uM MarA, DNA 15 nM (200 bp) or 200 nM (30 bp), 20 min 37 C, 8% native gel, SYBR green; settings: protein: recombinant; tags: N-terminal 6xHis (pET-15b); blunt
T7 sequence: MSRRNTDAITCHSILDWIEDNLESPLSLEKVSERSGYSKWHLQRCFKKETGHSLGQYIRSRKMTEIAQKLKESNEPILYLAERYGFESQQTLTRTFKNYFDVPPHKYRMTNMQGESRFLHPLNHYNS

GTTATCCTGTGTATCTGGGTTATCAGCGAAAAGTATAAGGGGTAAACAAGGATAAAGTGTCACTCTTTAGCTAGCCTTGCATCGCATTGAACAAAACTTGAACCGATTTAGCAAAACGTGGCATCGGTCAATTCATTCATTTGACTTATACTTGCCTGGGCAATATTATCCCCTGCAACTAATTACTTGCCAGGGCAAC (double strand) [marRAB 200-bp fragment]
binds: binding [1] | binding [2] | binding [3] | binding [4]

B1: marRAB 30-bp marbox (dsDNA)
DNA 1: GAACCGATTTAGCAAAACGTGGCATCGGTC
DNA 2: GACCGATGCCACGTTTTGCTAAATCGGTTC
binds: binding result (MarA I16C/M47C) | binding result (MarA WT) | binding result (MarA I13C/M47C)
